Experimental data: patent US20140348819A1, “Methods of Treating Cancer” (Dana-Farber Cancer Institute, Inc., priority 2011, published 2014)

Test system: six V600E BRAF melanoma cell lines
Experiment: Screening of recombinant RTK ligands for ability to confer resistance to BRAFi (PLX4720) or MEKi (PD184352) (Table 4)
Assay type: cell-based, human
Design: ability of recombinant RTK ligand to confer resistance / ability of recombinant RTK ligand to confer resistance (screening value): scale not given here
Protocol: HGF is the only one that can substantially confer drug resistance to the cell lines.
The complexity of the tumor microenvironment is much greater than an in vitro co-culture system. Therefore, the inventors explored whether the activation of other RTKs could result in a similar resistance as that observed with the activation of MET. To this end, six V600E BRAF melanoma cell lines were tested for their resistance to either BRAFi (PLX4720) or MEKi (PD184352) after the addition of 22 RTK ligands that have the potential of activating almost all known RTKs. […] The activation of a selected subset of these RTKs was confirmed by western blotting and by high throughput tyrosine kinase phosphorylation profiling.

B1: Wnt1 (protein, UniProt P04628 28-370, looked up)
Proto-oncogene Wnt-1: ANSSGRWWGIVNVASSTNLLTDSKSLQLVLEPSLQLLSRKQRRLIRQNPGILHSVSGGLQSAVRECKWQFRNRRWNCPTAPGPHLFGKIVNRGCRETAFIFAITSAGVTHSVARSCSEGSIESCTCDYRRRGPGGPDWHWGGCSDNIDFGRLFGREFVDSGEKGRDLRFLMNLHNNEAGRTTVFSEMRQECKCHGMSGSCTVRTCWMRLPTLRAVGDVLRDRFDGASRVLYGNRGSNRASRAELLRLEPEDPAHKPPSPHDLVYFEKSPNFCTYSGRLGTAGTAGRACNSSSPALDGCELLCCGRGHRTRTQRVTERCNCTFHWCCHVSCRNCTHTRVLHECL
A2058, PD184352 - 1 uM, ligand 0.4 ng/ml
  ability of recombinant RTK ligand to confer resistance (screening value): 1.04
A2058, PD184352 - 1 uM, ligand 1.6 ng/ml
  ability of recombinant RTK ligand to confer resistance (screening value): 0.99
A2058, PD184352 - 1 uM, ligand 6.25 ng/ml
  ability of recombinant RTK ligand to confer resistance (screening value): 0.86
A2058, PD184352 - 1 uM, ligand 25 ng/ml
  ability of recombinant RTK ligand to confer resistance (screening value): 0.98
A2058, PD184352 - 1 uM, ligand 100 ng/ml
  ability of recombinant RTK ligand to confer resistance (screening value): 1.04
A2058, PLX4720 - 2 uM, ligand 0.4 ng/ml
  ability of recombinant RTK ligand to confer resistance (screening value): 1.04
A2058, PLX4720 - 2 uM, ligand 1.6 ng/ml
  ability of recombinant RTK ligand to confer resistance (screening value): 1.00
A2058, PLX4720 - 2 uM, ligand 6.25 ng/ml
  ability of recombinant RTK ligand to confer resistance (screening value): 1.01
A2058, PLX4720 - 2 uM, ligand 25 ng/ml
  ability of recombinant RTK ligand to confer resistance (screening value): 0.98
A2058, PLX4720 - 2 uM, ligand 100 ng/ml
  ability of recombinant RTK ligand to confer resistance (screening value): 1.07
C32, PD184352 - 1 uM, ligand 0.4 ng/ml
  ability of recombinant RTK ligand to confer resistance (screening value): 1.06
C32, PD184352 - 1 uM, ligand 1.6 ng/ml
  ability of recombinant RTK ligand to confer resistance (screening value): 0.96
C32, PD184352 - 1 uM, ligand 6.25 ng/ml
  ability of recombinant RTK ligand to confer resistance (screening value): 1.11
C32, PD184352 - 1 uM, ligand 25 ng/ml
  ability of recombinant RTK ligand to confer resistance (screening value): 1.02
C32, PD184352 - 1 uM, ligand 100 ng/ml
  ability of recombinant RTK ligand to confer resistance (screening value): 1.05
C32, PLX4720 - 2 uM, ligand 0.4 ng/ml
  ability of recombinant RTK ligand to confer resistance (screening value): 1.13
C32, PLX4720 - 2 uM, ligand 1.6 ng/ml
  ability of recombinant RTK ligand to confer resistance (screening value): 1.00
C32, PLX4720 - 2 uM, ligand 6.25 ng/ml
  ability of recombinant RTK ligand to confer resistance (screening value): 1.03
C32, PLX4720 - 2 uM, ligand 25 ng/ml
  ability of recombinant RTK ligand to confer resistance (screening value): 1.01
C32, PLX4720 - 2 uM, ligand 100 ng/ml
  ability of recombinant RTK ligand to confer resistance (screening value): 0.95
Colo 829, PD184352 - 1 uM, ligand 0.4 ng/ml
  ability of recombinant RTK ligand to confer resistance (screening value): 0.94
Colo 829, PD184352 - 1 uM, ligand 1.6 ng/ml
  ability of recombinant RTK ligand to confer resistance (screening value): 0.93
Colo 829, PD184352 - 1 uM, ligand 6.25 ng/ml
  ability of recombinant RTK ligand to confer resistance (screening value): 0.91
Colo 829, PD184352 - 1 uM, ligand 25 ng/ml
  ability of recombinant RTK ligand to confer resistance (screening value): 0.85
Colo 829, PD184352 - 1 uM, ligand 100 ng/ml
  ability of recombinant RTK ligand to confer resistance (screening value): 0.89
Colo 829, PLX4720 - 2 uM, ligand 0.4 ng/ml
  ability of recombinant RTK ligand to confer resistance (screening value): 0.94
Colo 829, PLX4720 - 2 uM, ligand 1.6 ng/ml
  ability of recombinant RTK ligand to confer resistance (screening value): 0.92
Colo 829, PLX4720 - 2 uM, ligand 6.25 ng/ml
  ability of recombinant RTK ligand to confer resistance (screening value): 0.93
Colo 829, PLX4720 - 2 uM, ligand 25 ng/ml
  ability of recombinant RTK ligand to confer resistance (screening value): 0.06
Colo 829, PLX4720 - 2 uM, ligand 100 ng/ml
  ability of recombinant RTK ligand to confer resistance (screening value): 0.93
G-361, PD184352 - 1 uM, ligand 0.4 ng/ml
  ability of recombinant RTK ligand to confer resistance (screening value): 0.99
G-361, PD184352 - 1 uM, ligand 1.6 ng/ml
  ability of recombinant RTK ligand to confer resistance (screening value): 1.00
G-361, PD184352 - 1 uM, ligand 6.25 ng/ml
  ability of recombinant RTK ligand to confer resistance (screening value): 0.93
G-361, PD184352 - 1 uM, ligand 25 ng/ml
  ability of recombinant RTK ligand to confer resistance (screening value): 0.96
G-361, PD184352 - 1 uM, ligand 100 ng/ml
  ability of recombinant RTK ligand to confer resistance (screening value): 0.93
G-361, PLX4720 - 2 uM, ligand 0.4 ng/ml
  ability of recombinant RTK ligand to confer resistance (screening value): 0.94
G-361, PLX4720 - 2 uM, ligand 1.6 ng/ml
  ability of recombinant RTK ligand to confer resistance (screening value): 0.97
G-361, PLX4720 - 2 uM, ligand 6.25 ng/ml
  ability of recombinant RTK ligand to confer resistance (screening value): 1.01
G-361, PLX4720 - 2 uM, ligand 25 ng/ml
  ability of recombinant RTK ligand to confer resistance (screening value): 0.97
G-361, PLX4720 - 2 uM, ligand 100 ng/ml
  ability of recombinant RTK ligand to confer resistance (screening value): 0.98
SK-MEL-5, PD184352 - 1 uM, ligand 0.4 ng/ml
  ability of recombinant RTK ligand to confer resistance (screening value): 0.02
SK-MEL-5, PD184352 - 1 uM, ligand 1.6 ng/ml
  ability of recombinant RTK ligand to confer resistance (screening value): 0.91
SK-MEL-5, PD184352 - 1 uM, ligand 6.25 ng/ml
  ability of recombinant RTK ligand to confer resistance (screening value): 1.06
SK-MEL-5, PD184352 - 1 uM, ligand 25 ng/ml
  ability of recombinant RTK ligand to confer resistance (screening value): 1.02
SK-MEL-5, PD184352 - 1 uM, ligand 100 ng/ml
  ability of recombinant RTK ligand to confer resistance (screening value): 1.14
SK-MEL-5, PLX4720 - 2 uM, ligand 0.4 ng/ml
  ability of recombinant RTK ligand to confer resistance (screening value): 0.93
SK-MEL-5, PLX4720 - 2 uM, ligand 1.6 ng/ml
  ability of recombinant RTK ligand to confer resistance (screening value): 0.90
SK-MEL-5, PLX4720 - 2 uM, ligand 6.25 ng/ml
  ability of recombinant RTK ligand to confer resistance (screening value): 1.01
SK-MEL-5, PLX4720 - 2 uM, ligand 25 ng/ml
  ability of recombinant RTK ligand to confer resistance (screening value): 0.97
SK-MEL-5, PLX4720 - 2 uM, ligand 100 ng/ml
  ability of recombinant RTK ligand to confer resistance (screening value): 1.01
SK-MEL-28, PD184352 - 1 uM, ligand 0.4 ng/ml
  ability of recombinant RTK ligand to confer resistance (screening value): 0.99
SK-MEL-28, PD184352 - 1 uM, ligand 1.6 ng/ml
  ability of recombinant RTK ligand to confer resistance (screening value): 1.18
SK-MEL-28, PD184352 - 1 uM, ligand 6.25 ng/ml
  ability of recombinant RTK ligand to confer resistance (screening value): 0.95
SK-MEL-28, PD184352 - 1 uM, ligand 25 ng/ml
  ability of recombinant RTK ligand to confer resistance (screening value): 1.18
SK-MEL-28, PD184352 - 1 uM, ligand 100 ng/ml
  ability of recombinant RTK ligand to confer resistance (screening value): 1.20
SK-MEL-28, PLX4720 - 2 uM, ligand 0.4 ng/ml
  ability of recombinant RTK ligand to confer resistance (screening value): 1.02
SK-MEL-28, PLX4720 - 2 uM, ligand 1.6 ng/ml
  ability of recombinant RTK ligand to confer resistance (screening value): 1.25
SK-MEL-28, PLX4720 - 2 uM, ligand 6.25 ng/ml
  ability of recombinant RTK ligand to confer resistance (screening value): 0.99
SK-MEL-28, PLX4720 - 2 uM, ligand 25 ng/ml
  ability of recombinant RTK ligand to confer resistance (screening value): 1.15
SK-MEL-28, PLX4720 - 2 uM, ligand 100 ng/ml
  ability of recombinant RTK ligand to confer resistance (screening value): 1.25
